± gives the standard error. Fewer inactive variants are shown than the library holds.
B1: glmS ribozyme (parent)
chain: AUAAAAGCGCCAGAACUACAGAAAUGUAGUUGACGAGGAGGAGGUUUAUCGAAUUUUCGGCGGAUGCCUCCAAA

Variants of: B1
Experiment: self-cleavage kobs at 10000 uM GlcN6P; higher = faster cleavage; RNA array
Settings: with glucosamine-6-phosphate
Procedure, shortened: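 Tiles bearing barcoded ribozyme variants, transcribed in situ by E. coli RNA polymerase on sequenced MiSeq chips, were imaged over ~14 h at 37 °C using a hybridised Cy3 probe. Glucosamine-6-phosphate was supplied at 40 μM to 10 mM in HEPES/KCl/Mg(OAc)2 buffer. kobs came from one- or two-exponential decay fits to normalised per-tile medians, and weighted Michaelis–Menten fits then provided kcat and KM.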

Point of comparison: AUAAAAGCGCCAGAACUACAGAAAUGUAGUUGACGAGGAAGAGGCUUAUCGAAUUUUCGGCGGAGGGCUCCAAA, “self-cleavage kobs at 10000 uM GlcN6P” value 0.00034 ± 0.00012 s⁻¹. Against it:
- AUAAAAGCGCCAGAACUACAGAAAUGUAGUUGACGAGGAGGAGUUUUAUCGAAUUUUCGGCGGAAGCCUCCAAA — 6.4-fold lower, 5.28e-05 ± 1.3e-05 s⁻¹
- AUAAAAGCGCCAGAACUACAGAAAUGUAGUUGACGAGGACGAGGUUUAUCGAGUUUUCGGCGGAUCCCUCCAAA — 2.5-fold lower, 0.000137 ± 2.8e-05 s⁻¹
- AUAAAAGCGCCAGAACUACAGAAAUGUAGUUGACGAGGAGGAAGUUUAUCGAAUGUACGGCGGAGGCCUCCAAA — lower, < 1e-05 s⁻¹
- AUAAAAGCGCCAGAACUACAGAAAUGUAGUUGACGAGGAGGAGAUAUAUCGAAUUUUCGGCGGAUGCCUCCAAA — within error, 0.000375 ± 6.2e-05 s⁻¹
- AUAAAAGCGCCAGAACUACAGAAAUGUAGUUGACGAGGCAGAGGUUUAUCGAAUUUUGGGCGGAUGCCUCCAAA — lower, < 1e-05 s⁻¹
- AUAAAAGCGCCAGAACUACAGAAAUGUAGUUGACGAGGAGGAGGAUUAUCGAAUUAUCGGCGGAUGCCUCCAAA — 53-fold higher, 0.0179 ± 0.0079 s⁻¹
- AUAAAAGCGCCAGAACUACAGAAAUGUAGUUGACGAGGAGGAGGAUUAUCGAAAUUUCGGCGGAUGCCUACAAA — 4.1-fold lower, 8.25e-05 ± 1.9e-05 s⁻¹
- AUAAAAGCGCCAGAACUACAGAAAUGUAGUUGACGAGGAGGAGAUUUAUCGAAUUUUAGGCGGAUGUCUCCAAA — within error, 0.000308 ± 6.5e-05 s⁻¹
- AUAAAAGCGCCAGAACUACAGAAAUGUAGUUGACGAGUAGGAGGUUUAUGGAAUUUUCGGCGGAUGCCUCAAAA — 3.5-fold lower, 9.8e-05 ± 1.9e-05 s⁻¹
- AUAAAAGCGCCAGAACUACAGAAAUGUAGUUGACGAGUCGGAGAUUUAUCGAAUUUUCGGCGGAUGCCUCCAAA — lower, < 1e-05 s⁻¹
- AUAAAAGCGCCAGAACUACAGAAAUGUAGUUGACGAGCAGGAGCUUUAUCGAUUUUUCGGCCGAUGCCUCCAAA — lower, < 1e-05 s⁻¹
- AUAAAAGCGCCAGAACUACAGAAAUGUAGUUGACGAGCAGGGGGUUUAUCGAAUUUUCGGCGGGUGCCUCCAAA — lower, < 1e-05 s⁻¹
- AUAAAAGCGCCAGAACUACAGAAAUGUAGUUGACGAGGCGGAGCUUUAUCGAAUUUUCGGCGGAUGCAUCCAAA — lower, < 1e-05 s⁻¹
- AUAAAAGCGCCAGAACUACAGAAAUGUAGUUGACGAGGUGGAGGUUUAUCGAAUUUUCGGCGUAAGCCUCCAAA — lower, < 1e-05 s⁻¹
- AUAAAAGCGCCAGAACUACAGAAAUGUAGUUGACGAGCAGGAGGUUUAUAGAAUUUUCGGCGGAUGCCUCCAAA — lower, < 1e-05 s⁻¹
- AUAAAAGCGCCAGAACUACAGAAAUGUAGUUGACGAGGAGGACGGUUUUUGAAUUUUUGGCGGAUGUCUCCAAA — lower, < 1e-05 s⁻¹
- AUAAAAGCGCCAGAACUACAGAAAUGUAGUUGACGAGGGGGAGGUUUAUCGAAUUUUCGCCGGAUGCCUUCAAA — lower, < 1e-05 s⁻¹
- AUAAAAGCGCCAGAACUACAGAAAUGUAGUUGACGAGGAGGAGGCUUAUCGAAUUUUCGGCGGAGGUCUCCAAA — 3-fold lower, 0.000112 ± 2.2e-05 s⁻¹
- AUAAAAGCGCCAGAACUACAGAAAUGUAGUUGACGAGGAGGAAGUUUAUCGAAUUUUCGGCGGAUGCCUCGAAA — lower, < 1e-05 s⁻¹
- AUAAAAGCGCCAGAACUACAGAAAUGUAGUUGACGAGGGGGAGGUUUAUCGACUUUUCGGCGGAUGCCUCAAAA — 5.9-fold higher, 0.00202 ± 0.00063 s⁻¹
- AUAAAAGCGCCAGAACUACAGAAAUGUAGUUGACGAGGAGGACGUUUACCGAAUUUUCGGCGGAUGCCUCCAAA — lower, < 1e-05 s⁻¹
- AUAAAAGCGCCAGAACUACAGAAAUGUAGUUGACGAGGAUGAGGUUUGUCGAAUUUUCGGCGGAUGCCUACAAA — 8.7-fold lower, 3.93e-05 ± 9.6e-06 s⁻¹
- AUAAAAGCGCCAGAACUACAGAAAUGUAGUUGACGAGGAGGCGCUUUAUCUAAUUUUCGGCGGAUACCUCCAAA — lower, < 1e-05 s⁻¹
- AUAAAAGCGCCAGAACUACAGAAAUGUAGUUGACGAGUAGGAGGUUUAUGGAAUGUGCGGCGGAUGCCUCCAAA — 4.6-fold lower, 7.32e-05 ± 2e-05 s⁻¹
- AUAAAAGCGCCAGAACUACAGAAAUGUAGUUGACGAGGAAGAGGUUUAUCGAAUUUUAGGCGGAUGCCUCCAAA — 4.5-fold lower, 7.56e-05 ± 1.6e-05 s⁻¹
- AUAAAAGCGCCAGAACUACAGAAAUGUAGUUGACGAGGCGGAGGUUUAUCGAAUUUUCAGCGGAUGCAUCCAAA — lower, < 1e-05 s⁻¹
- AUAAAAGCGCCAGAACUACAGAAAUGUAGUUGACGAGGAGGAAGUUUAUCGAAUUUCCUGCGGUUGCCUCCAAA — lower, < 1e-05 s⁻¹
- AUAAAAGCGCCAGAACUACAGAAAUGUAGUUGACGAGGAAGAGGUUUAUCGAAUUUUCGGCGGAGGCCUCUAAA — 9.7-fold higher, 0.0033 ± 0.00061 s⁻¹
- AUAAAAGCGCCAGAACUACAGAAAUGUAGUUGACGAGGAGAAGGUUUAUCGAAUUUUCGGAGGAUGCGUCCAAA — lower, < 1e-05 s⁻¹
- AUAAAAGCGCCAGAACUACAGAAAUGUAGUUGACGAGGCGGAGCUUUAUGGAAUGUUCGGCGGAUGUCUCCAAA — lower, < 1e-05 s⁻¹
- AUAAAAGCGCCAGAACUACAGAAAUGUAGUUGACGAGGAGGAGGGUUAUCGAAUUUUCAGCGGAUGCCUCCAAA — 4.7-fold lower, 7.24e-05 ± 1.4e-05 s⁻¹
- AUAAAAGCGCCAGAACUACAGAAAUGUAGUUGACGAGUAGGAGGUUUAUGGAAUUUUCGGCGGAUGACUCGAAA — within error, 0.000322 ± 6.1e-05 s⁻¹
- AUAAAAGCGCCAGAACUACAGAAAUGUAGUUGACGAGGUGGAGGUUUAUCGAAUUUUCGGCGGAUGACUUCAAA — 19-fold higher, 0.00654 ± 0.0014 s⁻¹
- AUAAAAGCGCCAGAACUACAGAAAUGUAGUUGACGAGGUGGAGGUUUAUCGAAUCUUCGGCGGGUGCCUCCAAA — 67-fold higher, 0.0229 ± 0.0073 s⁻¹
- AUAAAAGCGCCAGAACUACAGAAAUGUAGUUGACGAGGAGGGGGUAUAUCGAAUUUUCGGCGGGUGCCUCCAAA — 14-fold higher, 0.00462 ± 0.0009 s⁻¹
- AUAAAAGCGCCAGAACUACAGAAAUGUAGUUGACGAGGAUGAUGUUUAUCGAAUUUUCGGCAGAUGCCUCCAAA — lower, < 1e-05 s⁻¹
